Source: paper PMC3738494, “A Systematic Analysis of Host Factors Reveals a Med23-Interferon-λ Regulatory Axis against Herpes Simplex Virus Type 1 Replication” (PLoS Pathogens, 2013)

Target: T1, Med23, myc-tagged fusion protein expressed in HEK cells (human, UniProt Q9ULK4 1-1368)
T1 sequence (looked up): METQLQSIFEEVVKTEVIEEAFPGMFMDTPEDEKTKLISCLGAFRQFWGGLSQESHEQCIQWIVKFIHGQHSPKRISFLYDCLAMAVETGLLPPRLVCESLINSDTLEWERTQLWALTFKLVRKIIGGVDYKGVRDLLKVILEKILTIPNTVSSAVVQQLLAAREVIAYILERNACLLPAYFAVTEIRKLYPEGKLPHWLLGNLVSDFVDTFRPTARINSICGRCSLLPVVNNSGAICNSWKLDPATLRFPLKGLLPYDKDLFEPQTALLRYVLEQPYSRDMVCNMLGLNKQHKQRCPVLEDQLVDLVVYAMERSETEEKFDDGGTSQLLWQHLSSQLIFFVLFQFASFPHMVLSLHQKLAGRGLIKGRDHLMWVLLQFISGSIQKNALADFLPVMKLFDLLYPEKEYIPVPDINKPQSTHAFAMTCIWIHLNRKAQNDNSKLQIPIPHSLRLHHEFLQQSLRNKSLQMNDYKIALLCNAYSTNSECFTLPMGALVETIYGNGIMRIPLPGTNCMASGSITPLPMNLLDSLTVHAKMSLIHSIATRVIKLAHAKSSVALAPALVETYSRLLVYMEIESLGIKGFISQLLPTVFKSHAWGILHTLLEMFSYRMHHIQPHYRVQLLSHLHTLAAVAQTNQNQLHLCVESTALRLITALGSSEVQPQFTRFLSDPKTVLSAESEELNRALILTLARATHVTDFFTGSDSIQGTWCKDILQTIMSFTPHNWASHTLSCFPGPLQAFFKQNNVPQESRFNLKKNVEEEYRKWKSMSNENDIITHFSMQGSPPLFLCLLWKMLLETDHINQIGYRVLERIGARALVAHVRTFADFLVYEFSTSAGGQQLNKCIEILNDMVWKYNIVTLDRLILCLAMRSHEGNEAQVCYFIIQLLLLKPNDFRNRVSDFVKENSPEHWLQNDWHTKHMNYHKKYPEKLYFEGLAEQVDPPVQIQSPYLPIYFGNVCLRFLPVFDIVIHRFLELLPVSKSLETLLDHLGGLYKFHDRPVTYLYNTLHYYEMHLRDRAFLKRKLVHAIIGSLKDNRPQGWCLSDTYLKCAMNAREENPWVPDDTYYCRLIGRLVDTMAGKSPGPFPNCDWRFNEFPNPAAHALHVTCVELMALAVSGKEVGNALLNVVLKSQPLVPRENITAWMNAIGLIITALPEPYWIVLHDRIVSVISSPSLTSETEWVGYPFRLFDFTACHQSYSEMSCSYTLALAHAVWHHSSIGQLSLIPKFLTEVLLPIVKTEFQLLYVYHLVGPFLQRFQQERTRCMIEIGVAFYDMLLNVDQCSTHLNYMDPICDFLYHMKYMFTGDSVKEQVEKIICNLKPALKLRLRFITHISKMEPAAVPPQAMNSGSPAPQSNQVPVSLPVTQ
Assay: cell-based or functional assay

B1: IRF7, HA-tagged, expressed in HEK cells (natural protein, human, UniProt Q92985 1-503, looked up)
chain: MALAPERAAPRVLFGEWLLGEISSGCYEGLQWLDEARTCFRVPWKHFARKDLSEADARIFKAWAVARGRWPPSSRGGGPPPEAETAERAGWKTNFRCALRSTRRFVMLRDNSGDPADPHKVYALSRELCWREGPGTDQTEAEAPAAVPPPQGGPPGPFLAHTHAGLQAPGPLPAPAGDKGDLLLQAVQQSCLADHLLTASWGADPVPTKAPGEGQEGLPLTGACAGGPGLPAGELYGWAVETTPSPGPQPAALTTGEAAAPESPHQAEPYLSPSPSACTAVQEPSPGALDVTIMYKGRTVLQKVVGHPSCTFLYGPPDPAVRATDPQQVAFPSPAELPDQKQLRYTEELLRHVAPGLHLELRGPQLWARRMGKCKVYWEVGGPPGSASPSTPACLLPRNCDTPIFDFRVFFQELVEFRARQRRGSPRYTIYLGFGQDLSAGRPKEKSLVLVKLEPWLCRVHLEGTQREGVSSLDSSSLSLCLSSANSLYDDIECFLMELEQPA
  IFN-λ1 promoter luciferase reporter in A549 cells, IRF7 co-expressed with Med23 (IRF7 alone ~9-fold over background): ~18 fold
  IFN-λ3 in the supernatant of A549 cells by ELISA, Med23 co-expressed with IRF7 against either alone: > 2 fold
